Results taken from patent publication US20140234903.

B1: PoyF (LanM, N-terminal dehydratase domain) (protein)
chain: MMSSSSSREGDALAHAADPTRSIADDITCGLDSLGGPPTVCDAEHPVPFEELWLGFVAHAARALEPLIAPSLHAAVLHDPHGPLRSLLIELAEMGAPAAFELFALYRIREASAASVFGSVRGVESRDTYNAFVKHLATQQLSPLWDAFPALKPLLATRTNLFIAAMAELCQRWEADHVEIMSVFPELRGIGAPQRIRPGLSDAHGGGRTVTRLSFAGGEALFYKPRPVDMEWGCAQFVEWFNGQDHGMPPLRALSVLPRTDYGWMEAARPALCTHVDAVARFYHRAGMLLALADLFCGVDFHSENLIASGEYPVIVDLETLFHPLGPFESQGDALERTELLPRPIYCEDGAPYVICGLGVVPGKAVIELRRRGWININCDNMASCDVTVPWPVGGAVPRNKEGAAPSIATWSGEIVSGFSAMHVFFRTRRNELWSADGPIVQAFGGGRSRFLLRATRIYVELLRRAVQPQALAAHASSSHIFDRLARTGRGWDEIHRVERQALDRMDVPYFTMETTAQFVRGEGRTIHAFFATSGLHMARRRSEFIDDVILNDRAASIRNVLEQSSYSGEATLPDSRVQTDAGAGA
B2: PoyE (SAM-dependent methyltransferase (nucleophilic)) (protein)
chain: MTPRSLPTEPLAAPAAAALDAALRLLKEYLDDIGYHGIYKYLATANYYAASPSVFNASRPQSLEAFDRQIHEGPDDWMLARCLTTCAPCRLEALPPPARRVAEVLADVGLLVWNGNTLEQGGYQLISVFDRYILLDARIHFGGSQLHDVYIGPDSHLLLYYMPVEAIRPADHILDLCTGTGVIGLGLSRFSEHVVSTDIAPPALRLAHMNRALNNAEGRVSIRAENLQETLASDECFDLIACNPPYVAAPPELPTPLYAQGPDRDGLGYLRLLMERAPEKLNPGGQAMFVVDLIGDTHRPYYFDDLERIAKEQELFIEAFIDNRLKADGQLPAYKFLYARLFHGTPPEEIEQRMRNFIFDELHAYYYYMTTLRVRRRKPSGLRVLDRYRITSYDEFFQQS

Legend:
[1] = biological target: T1, N-terminally His6-tagged PoyA (polytheonamide precursor peptide)
T1 chain: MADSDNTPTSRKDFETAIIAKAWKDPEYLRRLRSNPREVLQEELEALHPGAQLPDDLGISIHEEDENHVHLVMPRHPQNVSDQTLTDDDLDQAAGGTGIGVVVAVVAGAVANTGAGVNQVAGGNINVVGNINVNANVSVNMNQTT

[2] = biological target: T2, Nhis-PoyA121 (truncated variant of PoyA, residues 1-121, with the first 24 core amino acids)
T2 chain: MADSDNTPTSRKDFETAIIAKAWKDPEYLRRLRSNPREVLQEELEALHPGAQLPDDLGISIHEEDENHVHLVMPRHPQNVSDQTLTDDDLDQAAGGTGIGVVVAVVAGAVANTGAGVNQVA

Row | Protein | mass shift of PoyA (ESI-MS) on co-expression; modified residue by LC/MS/MS [1] | methylation of the C-terminal tryptic peptide 76-121 (LC-ESI/ECD-MS/MS) [2] | number of methylations on PoyA (MS, +14 mass units each) [1]
1 | B1 | produced PoyA with a mass 18 Da less than expected (observed 17090 Da, calculated 17108 Da | – | –
2 | B2 | – | Near quantitative monomethylation was observed in this sample, with no evidence of multiple methylation. ECD fragmentation located the site of methylation exclusively to Asn112 (in full-length PoyA numbering) | a suite of peptides increasing by 14 mass units (0 to 8 modifications)
